Test: soluble on expression in E. coli; label from the status in PepcDB or PDB records

| Sequence | soluble on expression in E. coli |
| --- | --- |
| MGSDKIHHHHHHMELNHLVTGKIALNQYVHRLEQKDVSFYVHYWGAMTNHYNTLLHKHSFYEICYVVRGEGYYLEGDRTYPLREQTIFLSKPEHLHQIKSETGLFLFYVAFELSEDQSSAEWIKVMEEVKQSPFITMQLKDGEPPGLLWKTLMLQAAQPVNAFDKEILSHLSHALILSLIQTFLPYAQRPKQKQPIHTSSALLTEVKLHIKDNLSQPLKLTDVASHFHISGRHLSRLFAAELGVSYSEFVQNEKINKAAELLKSTNLSIKEIAEEIGFSVHYFTRVFSAKIGSSPGLFRSLYKDSKMTAFQINKPFQKIEQAKPHE | not soluble |
| MGSDKIHHHHHHMENQLLTLKNNELTVQINPKGAELTHVIENKNKFDFIWNGSEWPKHAPILFPAIGRSTDDEYLLNQKIYPMQQHGFASDYFFEIIDQKEDQISLSLKDNEETYQSYPFQFELKVTYQLVSKKLKIQFEIKNLSVKKLTFALGFHPAFNLSANFEDYQISFETKDKTLKQFEIVKNPFPYRSGKIIEINKAVSNFPLEREFFEKGLVIFDNKIEEVKLFSQETDYQMTMKMADFPYLCLWTKEDENLSYLCIEPFQGLPDILNQKQELLQKEGNISLKSNESKTYEVELTFNSNKGES | not soluble |
| MGSDKIHHHHHHMEQAATQRLATGIPGLDEICGGGLVPRYAYLVRGGPGTGKTTLGLHFLAAGAANGETTLFISLEETESKIRWNAAQTGINLNQVHILDLSPSSDFFANTQIYDIFSPAEVEREPITRQIVETVQRLQPTRVFLDSITQFRYLTPDTFQFRKQVISFLRFLAEQRTTVVFSAENSAAFPDDDLQYIADGIISLELTNTGRYLTVSKMRGSSFVSGRHAMRLTTQGLQVFPRIIPTPLVAGHAFTLIPSGVPELDELLNGGVERGTITLITGPSGVGKTTLGFQFMKEAASRGERSMVFSFEEEIEIMQQRCEAVNIPVRAMQKQQLLRIEKIEPLQYNPAEFAQHVRYFIEQEQIKVVMIDSVTGYRLCMHGEDLISQLHALSKYLQSRGVTVFLIMDTTDIVGDFKVTEIGASYLGDNIIFLRFLEIEGELRKAIGVLKKRLGDFEKTLREFAISRYGIKVGKPLTNLRGILSGMPTWVDKA | not soluble |
| MGSDKIHHHHHHMEQIIRIGMDTSKHVFQLHGVNAAEEVVLRKKMRRKEMVAFFERAAPTVVALEACGGSHHWARLLEALGHDVKLIPPQYVKPYVKRGKNDAADAEALCEAVSRPTMRFVRVKTTDNQAALMLVGMRDRLVRNRTQLANAIRGYAAEFGLIAATGTSKVRSLLERIATDETLPELARELFGLHGREYDRLEDEIEKVEARLMAWHRTNECSRRLTRIPGVGPIGALMMVMKTPAPETFRSGRHFAAWLGLTPKDHSTAGRVRLGVITRAGDENLRSVLVAGATAVLRHVREDRGKNASPWLLDMLNRKPPKLVAVALANKIARVAWKLMVTGERYNPNAALSAYGQAA | not soluble |
| MGSDKIHHHHHHMESLIESNINFSIFFYNPNIHPVKEYLIRKEENIRFAEKHNIPFIDADYDTDNWFARAKGMENEPERGIRCTMCFDMRFERTALYAYENGFSLISSSLGISRWKNMAQINDCGIRAASHYPDIQYWDYNWRKNGGSSRMIEISKREEFYQQEYCGCVYSLRDTNRWRMSNGRDRIKIGVKFYSNAMEND | not soluble |
| MGSDKIHHHHHHMETITIDEKTLYNLTQPSEVIEELTHLNGNLTLVPNILSEDALLNKSVKEIEKIALEEADKTSPKHVRGKKIRRKGYAKYRFLKGFKIMLKGREDIYKLERISVELPVLYSDKGRVKTQVEERLLREEKVFKALMTVYSVLGGKLNAKLWMLEIQASGDFKYVIVDGKYVKLKGGRGSFSAIGVTEEGKRAVLDITLSVEKDVMSYWRLLVEVWKKYSFVLVVVDGTKALDKISLAELQVRRQGCLVHLKRNATKEEREALNVIFSAESGEIKPETCPRLLSYLSTPKELWRWLKSNNLIESFNSLLERRRFGSFHSPWRILQIARTIANNYNLSVVFHQFY | not soluble |
| MGSDKIHHHHHHMFAQVHYPESLSGEELDEYLFKGWFRNGQRIFTTNFLNFDQKIYSAVWLRIHLQSIKSIHALDKLAKRNSRFKITIQPASITPEKEALFEQYKTGVDFTASQSLHTLLFGDSTVDIYNTLELLIHDGNKLIGVGYFDTGKDCAAGITSFYDHAYKKNSLGKYIIMQKIKYCIDQQYSYFYPGYFVPNYPAFDYKLSIGTETLEYLSLSKNTWVSIQAFVTNEDPFQVMLKKLKEFQSVCANYGIEQQIYQYSFFEANIIPSLRGLHLFDFPVFVYLFSEQEDVVNPMVVFDVVNQCYHLIECRSIWKADESIQEEGFYSSHLLKMEKHICSALTATEMSTIIMRSIEESSTFR | not soluble |
| MGSDKIHHHHHHMFDPESLKKLAIEIVKKSIEAVFPDRAVKETLPKLNLDRVILVAVGKAAWRMAKAAYEVLGKKIRKGVVVTKYGHSEGPIDDFEIYEAGHPVPDENTIKTTRRVLELVDQLNENDTVLFLLSGGGSSLFELPLEGVSLEEIQKLTSALLKSGASIEEINTVRKHLSQVKGGRFAERVFPAKVVALVLSDVLGDRLDVIASGPAWPDSSTSEDALKVLEKYGIETSESVKRAILQETPKHLSNVEIHLIGNVQKVCDEAKSLAKEKGFNAEIITTSLDCEAREAGRFIASIMKEVKFKDRPLKKPAALIFGGETVVHVKGNGIGGRNQELALSAAIALEGIEGVILCSAGTDGTDGPTDAAGGIVDGSTAKTLKAMGEDPYQYLKNNDSYNALKKSGALLITGPTGTNVNDLIIGLIV | soluble |
| MGSDKIHHHHHHMFEAFGDMSLDLLRAFEVAARLRSFTAAAIELGTIQPAVSQQIKRLEEQLATRLFDRIYRGIELTEAGEILFSHVQAGLQSIDSGLIAITEQQQHEVLQVATDFAFAAYWLMPRLHRFHKLNPDVDVSLVTSERTHSMLRADIDVTVLFGDGRFKQGESRWLFSEEVFPVCSPLLIADRQTPLPNDALRDFPLLHLRGDSINNWFDWSGVFRALDIPQAPAPGQLRFDNYTLLIQAAIGGQGIAIGWKHLVDDLLDQGLLCRPIAGAAISGHGYYVVLPQRKRRVQIVQQFMDWLASEQALSGVSLAGRPLPSIAV | not soluble |
| MGSDKIHHHHHHMFGYVLPLRGELKVKDYEKFKSYYCGLCLSIKKNYGNLPRSVLNYDMTFLAVLLDALEDKKCEFRLNRCIAHPYKKKYAIINNKALDYAAFFNICLVYYKLVDDVNDDKKISSKIKSLLLRGYFKKFPKPFYVYSDYIKSSLTELNKLEKKSNNLTLDEISHPFSDLTAFIISSYADNKPYKDILYNIGYNLGKWIYIMDAYDDLKEDIKLKKFNAINNTMNLDDKPYEDLIKDISPKISFVLSMCGSNCLHNLNLLPLKTNQDILFNILQYGLLDKMNNLNL | not soluble |
| MGSDKIHHHHHHMFIGFDYGTANCSVAIMRDGHPQLLTMENNSALLPSMLCAPTREAVSEWLYRHHDVPATDEETQALLRRAIRYNREEDIEVGAQSVQFGLASLAHYIDDPQEVWFVKSPKSFLGASGLKPQQVALFEDLVCAMMVHIRHTAHSQLPEAITQAVIGRPINFQGLGGDDANRQAQGILERAAKRAGFQEVVFQYEPVAAGLDYEATLREEKRVLVVDIGGGTTDCSMLLMGPQWRQRADRENSLLGHSGCRVGGNDLDIALAFKNLMPLLGMGGETEKGIALPVLPWWNAVAINDVPAQSDFYSSANGRLLNDLVRNAREADKVALLLKVWRQRLSYRLVRCAEESKIALSGQADVTARLPFISDDLAVAISQQGLEAALDQPLTRILEQVQLALDSAQEKPDVIYLTGGSARSPLIKKALSEQLPGIPVAGGDDFGSVTAGLARWAEVVFR | not soluble |
| MGSDKIHHHHHHMFLNLIATAGNDRIRDFLVNDWYRSLKENVDLSKTDVLVINYGLTGLPKEVINFPAVERSGLINNTRFINLAIFLENHPEYDQILFCDGGDIIFQSDISHLFEEHRDAFRAVVEQLSPPIDLVVKEEDLVNGKEIKSFLSNKKLFNVGVIIAPREGFLELARTMERRLKNINVWGGDTVIGNYVIYKNPHVELPSKYNFIPSTAREKFYVKDSKFYLENGELIPIVHNAGRYRFLRPVKDFGYGPGKNRVNKFNIWMFRMLFSVSNFLKMK | not soluble |
| MGSDKIHHHHHHMFLYELFKEQRKLYNFTQEEFYEGIFKKRAASSFEVHNTHDLKVKDLPVLSDRSMMSILEIIHYAKEEFISPYDEDLNSLFDIFQNNTEKENKDYIYKLYKKSIELKEHSIIYWNLYLIIKIQCSEYDSRIVPTDSQDLSELKKMILSKQKFTLYDYKIVTNLSLVFSYKELQPFLSSLFPLDSNAPTVTSEAAYYLLENITTKLVQNRDFESCTEVLNIYNDLLQKFPSYKYKLNYLITYNLVGYFLTNNMDSLNNSIKYVDLLGDLENVELAKLMKDNIYLMISKKNNGSMSKPDTLLTKENNHIKLNEKKITKRLE | not soluble |
| MGSDKIHHHHHHMFNTAVKILYRSLIELTNHRLSSYLIKGFCESKISKPVIPLFSKHFRLNWDDVDGTAADYGSLSELFIRQINLERRPVSKEAHAVVSPVDGVVQTVGIINPNQTFTVKGKDYSFAELTGCKSADHQYNGGYFVVLYLSPRHYHRFHSPISCRYQKLAELGNRSYPVNQLGLKYGKDVLSKNYRFVYELNSGSRNVLMIPVGAMNINSIVQTNTRTELEIGEELGYFSFGSTVILVFEKDAFQPSAHLAEGQEVQVGELIGYEE | not soluble |
| MGSDKIHHHHHHMFQRAFLLYNGKAGNGKTDKYLKDVVPRALQSIGELTIIPSKEKGDIESICREREVDLIIVMGGDGTVHECINGLAVSPSPPPLVVLPTGTCNDFARSLRIPLSFVEAGNLLESGTWKRVPLIQANHRCYTNFLGMGIITTASEGTNPELKETFGRFSYFLSALQSLREPSPFSYTITSTKGSMSGQAILLLVMHGQFLGTLPVQLDENAIEQPFVTIYIVKEGGLPFIKDLVKGLVSPAMVNESDHIDRMTCDQCQIETEPVLSIDMDGEIYMKTPVNITTVGKVITVRVPDVNVTSDADHTIGGAQDTP | not soluble |
| MGSDKIHHHHHHMFQTLDHFLKSWEFEADATQKLLNSLTDESLKQEITSQNWTLGRIAWHTVAAIGIITSNTDLTFQAPAEDYPVPTSAQFIADSYHQASNAFVQALKTQWTDHTLQERINFIGQQMPNGSLLMFLIQHQNHHRGQMTVLMRQAGLTVPGIYGPAKEEWAKFGLEAPKM | not soluble |
| MGSDKIHHHHHHMFSQNDNINILVIRFKRIGDAILSLPLCHSLKLTFPNSKVDFVLYEDVAPLFEGHPYIDNVITITKEEQKNPFKYIKKVYNVTRKKYDIIIDIMSTPKSELFCMFSRKTPFRIGRYKKKRGFFYNYKMKEKESLNKVDKFLNQLLPPFEEVGFDVKKDYDFKFFAEKKEKEKYKQKMLETGVDFSKPVIAFSIYSRVAHKIYPIDKMKEVVKFLINRYSAQIIFFYSADQKDEIQKIHKEIGDFKNIFSSIETPTIKNLVPFLENCDYYIGNEGGARHLAQGVGIPTLAIFSPSADLKEWLPFPSEKNMGISPIDMLEKNALSLDDFNKMNPEEQFSLIDIETIKEMSDELIEKNKRK | not soluble |
| MGSDKIHHHHHHMFSYEVIRQFTETEHHLYRYIMDNRDKVMFMRVRELSEVTHVSPASIVRFTRKLGCEGFSEFKVKLKQEATREVKKKTADTVEVLEEFFERTMNRDYDHVLDAAAEIINEADLVVFFGIGTSGILAEYGSRFFSNMKKRTFYIKDPFYPNPGEQFKNKAVMIILSVSGETDQVLEQAQNMQQYGSRIISITNTSHNTLAGLSDVNIPYYVTQEMVDKTNITTQIPVLFLLEAMAKKNYNQEQEE | not soluble |
| MGSDKIHHHHHHMGDIQYTVRDDLKLFVNSIMVQQSADGNARFRLPLYADGYPGIMFQQSESGFFRFPESKQLSEFFLYGQTLEPISLEVQGTYRFVVFQLYPFASKYLLGIDPKELNDACYDLMQFQYIDMEVYSKQLTAAPDPESLIACMSDGVAALIGLNKPPHNDRIQQAIKQIIETEGRMRISDLSEAVCLSERTLERNFLGEVGLSPKQFAKIIQFQSSLTKLTDANAETLTAIGLDSGFTDQSHFIRVFKQYTGQTPSQYIKNQTR | not soluble |

Reference: the DeepSol protein solubility set
